The target of assay [1] is T1, cynomolgus CLL-1 on cells (HEK293AD cells stably expressing recombinant cynoCLL-1) (cynomolgus monkey).
T1 construct: also called 293AD/cynoCLL-1; 293AD/cynoCLL1
T1 chain: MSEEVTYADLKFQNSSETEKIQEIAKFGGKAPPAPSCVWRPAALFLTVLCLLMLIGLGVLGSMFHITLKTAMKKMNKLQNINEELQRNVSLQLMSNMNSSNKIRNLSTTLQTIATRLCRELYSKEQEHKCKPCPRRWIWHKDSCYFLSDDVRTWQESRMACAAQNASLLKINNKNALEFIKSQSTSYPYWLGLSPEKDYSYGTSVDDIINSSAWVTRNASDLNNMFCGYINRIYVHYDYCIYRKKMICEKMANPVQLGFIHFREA
The assay is described as follows: Scatchard analysis on 293AD/cynoCLL1 cells; 293AD/cynoCLL1 cells.

In assay [2] the target is T1, cynomolgus CLL-1 on cells (HEK293AD …). Put plainly: Scatchard analysis on 293AD/cynoCLL1 cells. As to the method: Competition assay mixtures of 50 μL volume containing a fixed concentration of [I¹²⁵] labeled antibody and decreasing concentrations of serially diluted, unlabeled antibody were placed into 96-well plates. HEK293AD cells stably expressing recombinant hu or cynoCLL-1 or HL-60 tumor cells expressing endogenous CLL-1 were cultured in growth media at 37° C. in 5% CO₂. Cells were detached from the flask using Sigma Cell Dissociation Solution and were washed with binding buffer, which consisted of Dulbecco's Modified Eagle Medium (DMEM) with 1% bovine serum albumin (BSA), […] and 0.1% sodium azide. The washed cells were added to the 96 well plates at a density of 100,000 cells in 0.2 mL of binding buffer. […] The final concentration of the unlabeled antibody in the competition assay ranged from 1000 nM through ten 2-fold dilution steps to a 0 nM buffer-only assay. Competition assays were carried out in triplicate. Competition assays were incubated for 2 hours at room temperature. […] The filters were counted on a Wallac Wizard 1470 gamma counter (PerkinElmer Life and Analytical Sciences Inc.; Wellesley, Mass.). The binding data was evaluated using NewLigand software (Genentech), which uses the fitting algorithm of Munson and Robard to determine the binding affinity of the antibody (Munson and Robard 1980).

B1: humanized 6E7.L4H1e (antibody, V domains shown)
VH: EVQLVQSGAEVKKPGASVKVSCKASGYSFTDYYMHWVRQAPGQGLEWIGRINPYNGAAFYSQNFKDRVTLTVDTSTSTAYLELSSLRSEDTAVYYCAIERGADLEGYAMDYWGQGTLVTVSS
VL: DIQMTQSPSSLSASVGDRVTITCRASQSVSTSSYNYMHWYQQKPGKPPKLLIKYASNLESGVPSRFSGSGSGTDFTLTISSLQPEDFATYYCQHSWEIPLTFGQGTKVEIK
notes: also called h6E7.L4H1e; 6E7.L4H1eN54
The Kd is the constant that tells how readily two partners part at equilibrium. B1: the dissociation constant Kd amounted to 0.67 nM in assay [1] and 0.22 nM in assay [2].
